Columns and labels:
[1] = parameters: species or system Sprague-Dawley rats; settings: rat, in vivo
Procedure: We eluted the peptides with a 50 mM NaHCO3 solution and collected the eluted fractions containing the peptides. […] After adding 15 μL of trimethylamine to the Cy7-ester and peptide solution, we gently stirred the mixed solution overnight in the dark at room temperature. We desalted the resulting solution (1.94 mL) using a PD-10 column, eluted it with PBS (pH 7.4) with 0.001% methyl cellulose, and then adjusted its pH to 6.0. We obtained 4.0–6.0 mL of eluted solution and quantified the peptides by BCA assay or HPLC. We used the same analytical conditions for HPLC as previously described. […] We fed male Sprague-Dawley rats (seven weeks old) a nonfluorescent rodent diet (D10001) for a week before intranasal administration to avoid the intrinsic fluorescence of tissues. […] We performed the surgical procedure described by Hirai et al. to close the nasal cavity. Briefly, we incised the neck and cannulated the trachea and esophagus with polyethylene tubing (Hibiki No. 6) to maintain respiration and keep the solutions in the nasal cavity, respectively. We sealed the nasopalatine ducts with medical super glue (Aron Alpha A Sankyo, Daiichi-Sankyo Co., Ltd., Tokyo, Japan) to prevent the drainage of the solutions from the nasal cavity into the oral cavity. […] At the designated time points after administration (15, 30, and 60 or 120 min), we quickly exsanguinated the rats from the postcaval vein and flushed the administered solution by perfusion of PBS (pH 7.4). We decapitated the rats, carefully isolated the whole brain and right and left trigeminal nerves, and washed them with ice-cold PBS (pH 7.4). We placed the brain samples onto a brain matrix (MK-RC-01, Muromachi Kikai Co., Ltd., Tokyo, Japan) and sliced with blades (TCB-100) into twelve 2 mm-thick fractions. We placed the sliced brain and trigeminal nerve samples on a silicon board and mounted them on the stage of an in vivo imaging system (IVIS Lumina XR, Caliper Life sciences, Inc., Waltham, MA, USA). […] We quantified the fluorescence intensity of the region of interest of the images based on their contrast. To calculate the fluorescence intensity derived from Cy7 in the tissues, we subtracted the intrinsic fluorescence of an untreated area from the total intensity.

[2] = in vivo; cited from earlier work
Text: During the permeation through the nasal mucosa, drugs come across microvascular vessels in the lamina propria directed toward the systemic circulation before reaching the brain or cerebrospinal fluid (CSF).

Substance	distribution in the trigeminal nerves [1]	distribution ratio (olfactory bulb/trigeminal nerves) [1]	delivery to the brain by intranasal coadministration with L-penetratin [2]
Cy7-insulin: insulin labeled with the Cy7 fluorescent dye via Cy7 Mono NHS Ester	high even without L-penetratin	dominantly increased	–
Cy7-Exendin-4: Exendin-4 labeled with the Cy7 fluorescent dye via Cy7 Mono NHS Ester	high even without L-penetratin	dominantly increased	–
leptin	–	–	significantly increased
